Assay results reported in US20200299347A1 (Merck KGaA, published 2020).

Legend:
NGF = assay: cell-based or functional assay
FGFR3 = assay: cell-based or functional assay

NGF, sequence (P01138 122-241): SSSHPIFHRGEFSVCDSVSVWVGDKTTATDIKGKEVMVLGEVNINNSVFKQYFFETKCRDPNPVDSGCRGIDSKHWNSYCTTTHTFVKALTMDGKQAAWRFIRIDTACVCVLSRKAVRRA

| anti-NGF IC50 (nM), U2OS TrkA_p75 assay; construct from HEK293 (NGF) [nM] | anti-NGF IC50 (nM), U2OS TrkA_p75 assay; construct from expiCHO-S (NGF) [nM] | FGF18 EC50 (nM), BaF3/FGFR3 assay; construct from HEK293 (FGFR3) [nM] | FGF18 EC50 (nM), BaF3/FGFR3 assay; construct from expiCHO-S (FGFR3) [nM] | Binder |
| --- | --- | --- | --- | --- |
| 0.52 | 0.86 | 0.21 | 0.08 | FGF18_Fab tanezumab (LH) (other) light: not shown heavy: QVQLQESGPGLVKPSETLSLTCTVSGFSLIGYDLNWIRQPPGKGLEWIGIIWGDGTTDYNSAVKSRVTISKDTSKNQFSLKLSSVTAADTAVYYCARGGYWYATSYYFDYWGQGTLVTVSSASTKGPSVFPLAPSSKSTSGGTAALGCLVKDYFPEPVTVSWNSGALTSGVHTFPAVLQSSGLYSLSSVVTVPSSSLGTQTYICNVNHKPSNTKVDKKVEPKSC |
| – | 1.07 | – | 0.06 | FGF18_Fab fulranumab (HL) (other) heavy: EENVDFRIHVENQTRARDDVSRKQLRLYQLYSRTSGKHIQVLGRRISARGEDGDKYAQLLVETDTFGSQVRIKGKETEFYLCMNRKGKLVGKPDGTSKECVFIEKVLENNYTALMSAKYSGWYVGFTKKGRPRKGPKTRENQQDVHFMKRYPKGQPELQKPFKYTTVTKGGGGSGGGGSEVQLVESGGGLVQPGGSLRLSCAASGFTLRSYSMNWVRQAPGKGLEWVSYISRSSHTIFYADSVKGRFTISRDNAKNSLYLQMDSLRDEDTAMYYCARVYSSGWHVSDYFDYWGQGILVTVSSASTKGPSVFPLAPSSKSTSGGTAALGCLVKDYFPEPVTVSWNSGALTSGVHTFPAVLQSSGLYSLSSVVTVPSSSLGTQTYICNVNHKPSNTKVDKKVEPKSC light: not shown |
| – | 1.61 | – | 0.07 | FGF18_Fab fulranumab (LH) (other) light: not shown heavy: EVQLVESGGGLVQPGGSLRLSCAASGFTLRSYSMNWVRQAPGKGLEWVSYISRSSHTIFYADSVKGRFTISRDNAKNSLYLQMDSLRDEDTAMYYCARVYSSGWHVSDYFDYWGQGILVTVSSASTKGPSVFPLAPSSKSTSGGTAALGCLVKDYFPEPVTVSWNSGALTSGVHTFPAVLQSSGLYSLSSVVTVPSSSLGTQTYICNVNHKPSNTKVDKKVEPKSC |
| – | 0.84 | – | 0.05 | FGF18_Fab tanezumab (HL) (other) heavy: EENVDFRIHVENQTRARDDVSRKQLRLYQLYSRTSGKHIQVLGRRISARGEDGDKYAQLLVETDTFGSQVRIKGKETEFYLCMNRKGKLVGKPDGTSKECVFIEKVLENNYTALMSAKYSGWYVGFTKKGRPRKGPKTRENQQDVHFMKRYPKGQPELQKPFKYTTVTKGGGGSGGGGSQVQLQESGPGLVKPSETLSLTCTVSGFSLIGYDLNWIRQPPGKGLEWIGIIWGDGTTDYNSAVKSRVTISKDTSKNQFSLKLSSVTAADTAVYYCARGGYWYATSYYFDYWGQGTLVTVSSASTKGPSVFPLAPSSKSTSGGTAALGCLVKDYFPEPVTVSWNSGALTSGVHTFPAVLQSSGLYSLSSVVTVPSSSLGTQTYICNVNHKPSNTKVDKKVEPKSC light: not shown |

Second part, the binder before the results:

| Binder | anti-NGF IC50 (nM), U2OS TrkA_p75 assay; construct from HEK293 (NGF) [nM] | anti-NGF IC50 (nM), U2OS TrkA_p75 assay; construct from expiCHO-S (NGF) [nM] | FGF18 EC50 (nM), BaF3/FGFR3 assay; construct from HEK293 (FGFR3) [nM] | FGF18 EC50 (nM), BaF3/FGFR3 assay; construct from expiCHO-S (FGFR3) [nM] |
| --- | --- | --- | --- | --- |
| FGF18_Fab fasinumab (LH) (other) light: EENVDFRIHVENQTRARDDVSRKQLRLYQLYSRTSGKHIQVLGRRISARGEDGDKYAQLLVETDTFGSQVRIKGKETEFYLCMNRKGKLVGKPDGTSKECVFIEKVLENNYTALMSAKYSGWYVGFTKKGRPRKGPKTRENQQDVHFMKRYPKGQPELQKPFKYTTVTKGGGGSGGGGSDIQMTQSPSSLSASAGDRVTITCRASQAIRNDLGWYQQKPGKAPKRLIYAAFNLQSGVPSRFSGSGSGTEFTLTISSLQPEDLASYYCQQYNRYPWTFGQGTKVEIKRTVAAPSVFIFPPSDEQLKSGTASVVCLLNNFYPREAKVQWKVDNALQSGNSQESVTEQDSKDSTYSLSSTLTLSKADYEKHKVYACEVTHQGLSSPVTKSFNRGEC heavy: QVQLVQSGAEVKKPGASVKVSCKVSGFTLTELSIHWVRQAPGKGLEWMGGFDPEDGETIYAQKFQGRVTMTEDTSTDTAYMELTSLRSEDTAVYYCSTIFGVVTNFDNWGQGTLVTVSSASTKGPSVFPLAPSSKSTSGGTAALGCLVKDYFPEPVTVSWNSGALTSGVHTFPAVLQSSGLYSLSSVVTVPSSSLGTQTYICNVNHKPSNTKVDKKVEPKSC | 0.54 | 1.56 | 0.27 | 0.1 |
| FGF18 SEED tanezumab (MBE626) (other) EENVDFRIHVENQTRARDDVSRKQLRLYQLYSRTSGKHIQVLGRRISARGEDGDKYAQLLVETDTFGSQVRIKGKETEFYLCMNRKGKLVGKPDGTSKECVFIEKVLENNYTALMSAKYSGWYVGFTKKGRPRKGPKTRENQQDVHFMKRYPKGQPELQKPFKYTTVTKGGSGGSGSGSEPKSSDKTHTCPPCPAPEAAGGPSVFLFPPKPKDTLMISRTPEVTCVVVDVSHEDPEVKFNWYVDGVEVHNAKTKPREEQYNSTYRVVSVLTVLHQDWLNGKEYKCKVSNKALPAPIEKTISKAKGQPFRPEVHLLPPSREEMTKNQVSLTCLARGFYPKDIAVEWESNGQPENNYKTTPSRQEPSQGTTTFAVTSKLTVDKSRWQQGNVFSCSVMHEALHNHYTQKTISLSPGK heavy: QVQLQESGPGLVKPSETLSLTCTVSGFSLIGYDLNWIRQPPGKGLEWIGIIWGDGTTDYNSAVKSRVTISKDTSKNQFSLKLSSVTAADTAVYYCARGGYWYATSYYFDYWGQGTLVTVSSASTKGPSVFPLAPSSKSTSGGTAALGCLVKDYFPEPVTVSWNSGALTSGVHTFPAVLQSSGLYSLSSVVTVPSSSLGTQTYICNVNHKPSNTKVDKKVEPKSCDKTHTCPPCPAPEAAGGPSVFLFPPKPKDTLMISRTPEVTCVVVDVSHEDPEVKFNWYVDGVEVHNAKTKPREEQYNSTYRVVSVLTVLHQDWLNGKEYKCKVSNKALPAPIEKTISKAKGQPREPQVYTLPPPSEELALNELVTLTCLVKGFYPSDIAVEWLQGSQELPREKYLTWAPVLDSDGSFFLYSILRVAAEDWKKGDTFSCSVMHEALHNRFTQKSLDRSPGK light: not shown | – | 0.44 | – | 0.05 |
| FGF18 SEED fulranumab (SEED-B) (other) EENVDFRIHVENQTRARDDVSRKQLRLYQLYSRTSGKHIQVLGRRISARGEDGDKYAQLLVETDTFGSQVRIKGKETEFYLCMNRKGKLVGKPDGTSKECVFIEKVLENNYTALMSAKYSGWYVGFTKKGRPRKGPKTRENQQDVHFMKRYPKGQPELQKPFKYTTVTKGGGGSGGGGSDKTHTCPPCPAPEAAGGPSVFLFPPKPKDTLMISRTPEVTCVVVDVSHEDPEVKFNWYVDGVEVHNAKTKPREEQYNSTYRVVSVLTVLHQDWLNGKEYKCKVSNKALPAPIEKTISKAKGQPFRPEVHLLPPSREEMTKNQVSLTCLARGFYPKDIAVEWESNGQPENNYKTTPSRQEPSQGTTTFAVTSKLTVDKSRWQQGNVFSCSVMHEALHNHYTQKTISLSPGK heavy: EVQLVESGGGLVQPGGSLRLSCAASGFTLRSYSMNWVRQAPGKGLEWVSYISRSSHTIFYADSVKGRFTISRDNAKNSLYLQMDSLRDEDTAMYYCARVYSSGWHVSDYFDYWGQGILVTVSSASTKGPSVFPLAPSSKSTSGGTAALGCLVKDYFPEPVTVSWNSGALTSGVHTFPAVLQSSGLYSLSSVVTVPSSSLGTQTYICNVNHKPSNTKVDKKVEPKSCDKTHTCPPCPAPEAAGGPSVFLFPPKPKDTLMISRTPEVTCVVVDVSHEDPEVKFNWYVDGVEVHNAKTKPREEQYNSTYRVVSVLTVLHQDWLNGKEYKCKVSNKALPAPIEKTISKAKGQPREPQVYTLPPPSEELALNELVTLTCLVKGFYPSDIAVEWLQGSQELPREKYLTWAPVLDSDGSFFLYSILRVAAEDWKKGDTFSCSVMHEALHNRFTQKSLDRSPGK light: not shown | – | 0.25 | – | 0.06 |
| FGF18_Fab fasinumab (HL) (other) heavy: EENVDFRIHVENQTRARDDVSRKQLRLYQLYSRTSGKHIQVLGRRISARGEDGDKYAQLLVETDTFGSQVRIKGKETEFYLCMNRKGKLVGKPDGTSKECVFIEKVLENNYTALMSAKYSGWYVGFTKKGRPRKGPKTRENQQDVHFMKRYPKGQPELQKPFKYTTVTKGGGGSGGGGSQVQLVQSGAEVKKPGASVKVSCKVSGFTLTELSIHWVRQAPGKGLEWMGGFDPEDGETIYAQKFQGRVTMTEDTSTDTAYMELTSLRSEDTAVYYCSTIFGVVTNFDNWGQGTLVTVSSASTKGPSVFPLAPSSKSTSGGTAALGCLVKDYFPEPVTVSWNSGALTSGVHTFPAVLQSSGLYSLSSVVTVPSSSLGTQTYICNVNHKPSNTKVDKKVEPKSC light: DIQMTQSPSSLSASAGDRVTITCRASQAIRNDLGWYQQKPGKAPKRLIYAAFNLQSGVPSRFSGSGSGTEFTLTISSLQPEDLASYYCQQYNRYPWTFGQGTKVEIKRTVAAPSVFIFPPSDEQLKSGTASVVCLLNNFYPREAKVQWKVDNALQSGNSQESVTEQDSKDSTYSLSSTLTLSKADYEKHKVYACEVTHQGLSSPVTKSFNRGEC | – | 1.33 | – | 0.06 |
| FGF18 SEED fasinumab (SEED-A) (other) EENVDFRIHVENQTRARDDVSRKQLRLYQLYSRTSGKHIQVLGRRISARGEDGDKYAQLLVETDTFGSQVRIKGKETEFYLCMNRKGKLVGKPDGTSKECVFIEKVLENNYTALMSAKYSGWYVGFTKKGRPRKGPKTRENQQDVHFMKRYPKGQPELQKPFKYTTVTKGGGGSGGGGSDKTHTCPPCPAPEAAGGPSVFLFPPKPKDTLMISRTPEVTCVVVDVSHEDPEVKFNWYVDGVEVHNAKTKPREEQYNSTYRVVSVLTVLHQDWLNGKEYKCKVSNKALPAPIEKTISKAKGQPFRPEVHLLPPSREEMTKNQVSLTCLARGFYPKDIAVEWESNGQPENNYKTTPSRQEPSQGTTTFAVTSKLTVDKSRWQQGNVFSCSVMHEALHNHYTQKTISLSPGK heavy: QVQLVQSGAEVKKPGASVKVSCKVSGFTLTELSIHWVRQAPGKGLEWMGGFDPEDGETIYAQKFQGRVTMTEDTSTDTAYMELTSLRSEDTAVYYCSTIFGVVTNFDNWGQGTLVTVSSASTKGPSVFPLAPSSKSTSGGTAALGCLVKDYFPEPVTVSWNSGALTSGVHTFPAVLQSSGLYSLSSVVTVPSSSLGTQTYICNVNHKPSNTKVDKKVEPKSCDKTHTCPPCPAPEAAGGPSVFLFPPKPKDTLMISRTPEVTCVVVDVSHEDPEVKFNWYVDGVEVHNAKTKPREEQYNSTYRVVSVLTVLHQDWLNGKEYKCKVSNKALPAPIEKTISKAKGQPREPQVYTLPPPSEELALNELVTLTCLVKGFYPSDIAVEWLQGSQELPREKYLTWAPVLDSDGSFFLYSILRVAAEDWKKGDTFSCSVMHEALHNRFTQKSLDRSPGK light: DIQMTQSPSSLSASAGDRVTITCRASQAIRNDLGWYQQKPGKAPKRLIYAAFNLQSGVPSRFSGSGSGTEFTLTISSLQPEDLASYYCQQYNRYPWTFGQGTKVEIKRTVAAPSVFIFPPSDEQLKSGTASVVCLLNNFYPREAKVQWKVDNALQSGNSQESVTEQDSKDSTYSLSSTLTLSKADYEKHKVYACEVTHQGLSSPVTKSFNRGEC | – | 0.29 | – | 0.14 |
